Reference: patent US20190134153A1, “IMMUNOMODULATORY EFFECT OF INHALED KINASE INHIBITOR PEPTIDES IN LUNG” (MOERAE MATRIX, INC., priority 2017, published 2019)

Legend:
Experiment in all cases: Kinase Profiling Assay
Assay type in all cases: biochemical
Settings in all cases: 100 μM
NEK7(h) = NEK7(h) (Homo sapiens, UniProt Q8TDX7)
TAO1(h) = biological target: T1, TAO1(h) (Homo sapiens, UniProt Q7L7X3)
T1 sequence (Q7L7X3 1-1001): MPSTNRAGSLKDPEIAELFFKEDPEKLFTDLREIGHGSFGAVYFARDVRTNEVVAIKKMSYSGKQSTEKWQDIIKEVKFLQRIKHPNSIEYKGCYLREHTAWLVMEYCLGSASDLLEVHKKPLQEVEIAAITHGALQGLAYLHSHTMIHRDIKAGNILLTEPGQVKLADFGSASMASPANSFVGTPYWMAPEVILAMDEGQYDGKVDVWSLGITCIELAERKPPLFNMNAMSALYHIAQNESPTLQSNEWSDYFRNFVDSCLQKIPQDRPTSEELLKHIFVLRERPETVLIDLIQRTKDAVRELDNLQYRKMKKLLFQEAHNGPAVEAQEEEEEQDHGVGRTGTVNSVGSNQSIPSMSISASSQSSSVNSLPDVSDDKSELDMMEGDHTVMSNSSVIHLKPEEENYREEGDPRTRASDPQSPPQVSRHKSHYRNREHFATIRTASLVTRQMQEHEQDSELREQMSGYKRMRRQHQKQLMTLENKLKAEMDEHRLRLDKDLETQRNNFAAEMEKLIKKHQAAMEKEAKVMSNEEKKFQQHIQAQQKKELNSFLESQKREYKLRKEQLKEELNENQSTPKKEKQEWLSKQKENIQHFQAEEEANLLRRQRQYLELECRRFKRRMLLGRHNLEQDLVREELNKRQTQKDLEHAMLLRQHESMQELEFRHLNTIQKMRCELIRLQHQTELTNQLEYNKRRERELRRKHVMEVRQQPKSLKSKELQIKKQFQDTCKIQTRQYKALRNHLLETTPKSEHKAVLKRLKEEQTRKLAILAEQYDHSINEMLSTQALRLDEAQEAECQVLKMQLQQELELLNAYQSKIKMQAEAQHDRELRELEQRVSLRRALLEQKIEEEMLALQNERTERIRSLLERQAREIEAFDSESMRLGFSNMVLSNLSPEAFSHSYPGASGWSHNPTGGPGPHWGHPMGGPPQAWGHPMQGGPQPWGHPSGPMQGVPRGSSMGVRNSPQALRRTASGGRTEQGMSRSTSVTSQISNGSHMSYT

FGFR1(h) = FGFR1(h) (Homo sapiens, UniProt P11362)
Sequence of FGFR1(h) (P11362 22-822): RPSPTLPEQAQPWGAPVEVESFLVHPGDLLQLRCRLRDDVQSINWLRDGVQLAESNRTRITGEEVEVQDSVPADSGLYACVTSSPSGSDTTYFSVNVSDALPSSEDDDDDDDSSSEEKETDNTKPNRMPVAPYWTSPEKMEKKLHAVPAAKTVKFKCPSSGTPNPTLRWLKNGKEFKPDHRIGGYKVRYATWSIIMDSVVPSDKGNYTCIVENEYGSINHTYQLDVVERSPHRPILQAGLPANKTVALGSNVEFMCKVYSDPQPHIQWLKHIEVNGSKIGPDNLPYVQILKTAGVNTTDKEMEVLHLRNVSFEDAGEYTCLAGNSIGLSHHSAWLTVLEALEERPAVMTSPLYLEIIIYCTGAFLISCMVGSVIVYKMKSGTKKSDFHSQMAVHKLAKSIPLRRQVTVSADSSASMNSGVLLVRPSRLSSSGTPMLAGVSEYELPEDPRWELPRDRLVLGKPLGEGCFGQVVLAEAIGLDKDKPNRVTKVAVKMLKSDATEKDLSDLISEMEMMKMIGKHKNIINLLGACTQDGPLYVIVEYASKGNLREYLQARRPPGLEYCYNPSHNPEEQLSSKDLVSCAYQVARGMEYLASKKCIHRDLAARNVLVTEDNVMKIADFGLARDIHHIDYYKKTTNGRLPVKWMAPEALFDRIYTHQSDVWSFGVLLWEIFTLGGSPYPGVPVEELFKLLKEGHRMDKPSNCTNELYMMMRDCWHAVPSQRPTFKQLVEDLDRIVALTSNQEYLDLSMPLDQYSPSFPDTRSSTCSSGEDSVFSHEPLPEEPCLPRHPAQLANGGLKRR

BRK(h) = BRK(h) (Homo sapiens, UniProt Q13882)
Sequence of BRK(h) (Q13882 whole entry): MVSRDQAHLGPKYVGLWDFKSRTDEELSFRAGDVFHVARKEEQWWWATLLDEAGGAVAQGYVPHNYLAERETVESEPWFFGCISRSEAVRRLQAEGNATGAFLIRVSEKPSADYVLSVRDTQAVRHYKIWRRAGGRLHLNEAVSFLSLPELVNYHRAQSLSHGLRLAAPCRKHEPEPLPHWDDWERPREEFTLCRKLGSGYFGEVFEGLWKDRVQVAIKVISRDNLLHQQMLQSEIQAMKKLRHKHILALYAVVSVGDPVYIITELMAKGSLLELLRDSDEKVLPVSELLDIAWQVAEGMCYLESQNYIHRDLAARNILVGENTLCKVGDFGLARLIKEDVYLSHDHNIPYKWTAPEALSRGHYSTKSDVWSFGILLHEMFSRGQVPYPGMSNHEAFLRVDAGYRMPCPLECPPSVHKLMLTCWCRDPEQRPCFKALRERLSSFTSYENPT

CDK6/cyclinD3(h) = CDK6/cyclinD3(h) (Homo sapiens, UniProt Q00534)
Sequence of CDK6/cyclinD3(h) (Q00534 whole entry): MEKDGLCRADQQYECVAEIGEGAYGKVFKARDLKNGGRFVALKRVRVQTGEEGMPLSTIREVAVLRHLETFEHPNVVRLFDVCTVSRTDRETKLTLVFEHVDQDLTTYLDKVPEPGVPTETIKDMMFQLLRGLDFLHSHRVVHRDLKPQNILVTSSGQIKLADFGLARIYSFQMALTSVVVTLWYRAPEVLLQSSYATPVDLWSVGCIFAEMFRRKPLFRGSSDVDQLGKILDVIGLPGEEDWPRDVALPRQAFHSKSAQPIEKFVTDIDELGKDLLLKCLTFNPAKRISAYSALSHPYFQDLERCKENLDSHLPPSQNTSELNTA
Sequence of CDK6/cyclinD3(h) (P30281 whole entry partner): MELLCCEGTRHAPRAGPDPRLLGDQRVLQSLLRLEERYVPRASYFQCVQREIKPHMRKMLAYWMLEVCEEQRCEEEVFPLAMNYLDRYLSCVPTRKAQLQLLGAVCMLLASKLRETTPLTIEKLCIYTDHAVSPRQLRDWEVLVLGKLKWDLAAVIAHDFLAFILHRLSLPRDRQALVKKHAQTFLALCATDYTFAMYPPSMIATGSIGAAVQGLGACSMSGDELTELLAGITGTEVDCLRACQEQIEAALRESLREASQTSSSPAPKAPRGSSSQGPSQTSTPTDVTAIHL

Fyn(h) = Fyn(h) (Homo sapiens, UniProt P06241)
Sequence of Fyn(h) (P06241 whole entry): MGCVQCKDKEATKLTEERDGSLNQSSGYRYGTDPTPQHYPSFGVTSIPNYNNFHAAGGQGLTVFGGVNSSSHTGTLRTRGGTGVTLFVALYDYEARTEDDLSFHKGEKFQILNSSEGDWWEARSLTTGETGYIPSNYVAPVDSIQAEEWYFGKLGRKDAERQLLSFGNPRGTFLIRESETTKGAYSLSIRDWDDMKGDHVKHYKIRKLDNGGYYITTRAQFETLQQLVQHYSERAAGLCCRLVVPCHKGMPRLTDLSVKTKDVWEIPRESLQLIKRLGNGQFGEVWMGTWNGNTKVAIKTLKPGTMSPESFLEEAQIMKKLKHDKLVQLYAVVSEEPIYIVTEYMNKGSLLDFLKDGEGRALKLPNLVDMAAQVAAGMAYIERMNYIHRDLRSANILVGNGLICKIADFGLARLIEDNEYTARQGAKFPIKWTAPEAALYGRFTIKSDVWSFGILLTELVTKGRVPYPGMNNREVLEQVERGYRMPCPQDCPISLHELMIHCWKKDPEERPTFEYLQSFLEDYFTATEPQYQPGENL

PKCι(h) = biological target: T2, PKCι(h) (Homo sapiens, UniProt P41743)
T2 sequence (P41743 1-596): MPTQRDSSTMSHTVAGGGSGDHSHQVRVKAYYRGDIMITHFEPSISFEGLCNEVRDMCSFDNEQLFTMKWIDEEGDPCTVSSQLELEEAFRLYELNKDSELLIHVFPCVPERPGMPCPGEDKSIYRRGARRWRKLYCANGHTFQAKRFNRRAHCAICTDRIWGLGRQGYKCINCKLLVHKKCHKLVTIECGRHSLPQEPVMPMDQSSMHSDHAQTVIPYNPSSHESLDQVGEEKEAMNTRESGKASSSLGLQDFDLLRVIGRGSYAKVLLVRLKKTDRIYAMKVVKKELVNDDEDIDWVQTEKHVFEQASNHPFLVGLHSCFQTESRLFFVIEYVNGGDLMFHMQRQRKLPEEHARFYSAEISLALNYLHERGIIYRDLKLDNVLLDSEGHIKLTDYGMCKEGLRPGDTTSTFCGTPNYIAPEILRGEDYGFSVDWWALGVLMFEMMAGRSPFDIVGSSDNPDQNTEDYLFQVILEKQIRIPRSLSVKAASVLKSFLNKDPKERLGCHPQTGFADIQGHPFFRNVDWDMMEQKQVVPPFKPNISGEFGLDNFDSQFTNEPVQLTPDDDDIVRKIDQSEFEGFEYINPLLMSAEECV

DAPK1(h) = DAPK1(h) (Homo sapiens, UniProt P53355)
Sequence of DAPK1(h) (P53355 whole entry): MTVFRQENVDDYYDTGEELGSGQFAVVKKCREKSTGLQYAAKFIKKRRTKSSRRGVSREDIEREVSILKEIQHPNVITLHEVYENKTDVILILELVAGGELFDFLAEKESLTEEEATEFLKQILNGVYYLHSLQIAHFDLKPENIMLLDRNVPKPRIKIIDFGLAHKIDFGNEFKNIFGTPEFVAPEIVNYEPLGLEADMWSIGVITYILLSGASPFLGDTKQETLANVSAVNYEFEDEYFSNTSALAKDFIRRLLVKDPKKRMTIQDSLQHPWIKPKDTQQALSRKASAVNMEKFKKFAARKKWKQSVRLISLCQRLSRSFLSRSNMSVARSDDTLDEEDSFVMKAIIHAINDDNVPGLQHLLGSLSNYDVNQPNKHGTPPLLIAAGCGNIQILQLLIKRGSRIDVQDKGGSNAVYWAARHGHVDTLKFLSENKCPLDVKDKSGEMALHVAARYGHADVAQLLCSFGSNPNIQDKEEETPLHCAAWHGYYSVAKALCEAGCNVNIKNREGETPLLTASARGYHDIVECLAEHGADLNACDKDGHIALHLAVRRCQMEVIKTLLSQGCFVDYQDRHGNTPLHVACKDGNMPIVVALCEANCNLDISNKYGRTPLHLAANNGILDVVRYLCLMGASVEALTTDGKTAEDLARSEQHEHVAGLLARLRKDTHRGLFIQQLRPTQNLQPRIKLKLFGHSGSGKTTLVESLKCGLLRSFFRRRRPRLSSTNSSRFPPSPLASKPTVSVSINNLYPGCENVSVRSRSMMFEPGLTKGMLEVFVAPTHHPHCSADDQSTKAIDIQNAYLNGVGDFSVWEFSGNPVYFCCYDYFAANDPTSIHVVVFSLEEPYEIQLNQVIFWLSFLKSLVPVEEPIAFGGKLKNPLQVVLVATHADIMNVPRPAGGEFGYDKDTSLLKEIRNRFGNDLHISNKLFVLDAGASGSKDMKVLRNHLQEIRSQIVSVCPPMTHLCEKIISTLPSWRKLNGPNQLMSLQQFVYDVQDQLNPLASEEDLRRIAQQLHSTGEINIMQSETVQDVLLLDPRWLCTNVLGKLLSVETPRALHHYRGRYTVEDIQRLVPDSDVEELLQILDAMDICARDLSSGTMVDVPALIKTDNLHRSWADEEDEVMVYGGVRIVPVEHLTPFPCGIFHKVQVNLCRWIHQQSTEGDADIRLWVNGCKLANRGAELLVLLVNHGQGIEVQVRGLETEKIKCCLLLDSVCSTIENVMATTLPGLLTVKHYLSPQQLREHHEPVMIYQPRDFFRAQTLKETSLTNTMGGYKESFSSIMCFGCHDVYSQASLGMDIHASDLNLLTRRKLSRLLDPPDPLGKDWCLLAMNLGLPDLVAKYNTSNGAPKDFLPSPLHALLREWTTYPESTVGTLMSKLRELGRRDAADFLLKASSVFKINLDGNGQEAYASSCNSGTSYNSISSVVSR

BrSK2(h) = biological target: T3, BrSK2(h) (Homo sapiens, UniProt Q8IWQ3)
T3 sequence (Q8IWQ3 1-736): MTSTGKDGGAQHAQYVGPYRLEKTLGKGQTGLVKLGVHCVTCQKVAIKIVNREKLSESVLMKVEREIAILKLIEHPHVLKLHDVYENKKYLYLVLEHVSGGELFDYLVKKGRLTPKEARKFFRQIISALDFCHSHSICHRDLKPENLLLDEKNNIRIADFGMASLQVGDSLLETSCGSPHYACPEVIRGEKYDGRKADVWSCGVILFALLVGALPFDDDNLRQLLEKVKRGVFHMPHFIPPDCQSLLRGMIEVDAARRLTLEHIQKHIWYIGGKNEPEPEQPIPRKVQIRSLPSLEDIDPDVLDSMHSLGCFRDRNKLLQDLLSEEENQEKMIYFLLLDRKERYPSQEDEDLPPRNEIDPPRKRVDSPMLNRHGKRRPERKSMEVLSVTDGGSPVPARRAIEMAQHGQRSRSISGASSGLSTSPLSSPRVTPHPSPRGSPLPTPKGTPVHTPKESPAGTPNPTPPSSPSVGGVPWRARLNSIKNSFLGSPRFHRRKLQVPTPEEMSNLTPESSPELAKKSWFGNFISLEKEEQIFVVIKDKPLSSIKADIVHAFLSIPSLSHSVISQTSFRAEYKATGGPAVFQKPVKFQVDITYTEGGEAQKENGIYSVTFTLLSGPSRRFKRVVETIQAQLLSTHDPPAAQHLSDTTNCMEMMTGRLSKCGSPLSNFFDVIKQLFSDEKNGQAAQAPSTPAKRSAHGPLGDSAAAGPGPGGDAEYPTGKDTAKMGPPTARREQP

Sequence of NEK7(h) (Q8TDX7 whole entry): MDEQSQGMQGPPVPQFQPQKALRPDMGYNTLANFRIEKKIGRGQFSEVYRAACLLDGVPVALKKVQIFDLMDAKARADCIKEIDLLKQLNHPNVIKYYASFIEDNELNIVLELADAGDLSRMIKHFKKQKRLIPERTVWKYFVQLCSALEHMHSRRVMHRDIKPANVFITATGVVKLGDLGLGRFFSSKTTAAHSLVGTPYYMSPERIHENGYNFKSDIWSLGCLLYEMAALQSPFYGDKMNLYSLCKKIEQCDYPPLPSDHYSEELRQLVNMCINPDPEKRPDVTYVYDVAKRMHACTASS

Sequence | % activity (NEK7(h)) [%] | % activity (TAO1(h)) [%] | % activity (FGFR1(h)) [%] | % activity (BRK(h)) [%] | % activity (CDK6/cyclinD3(h)) [%] | % activity (Fyn(h)) [%] | % activity (PKCι(h)) [%] | % activity (DAPK1(h)) [%] | % activity (BrSK2(h)) [%]
HRRIKAWLKKIKALARQLGVAA [MMI-0500] | 89 | 24 | 18 | 41 | 23 | 83 | 7 | 0 | 84
YARAAARQARAKALNRQLGVA [MMI-0200] | 96 |  | 97 | 127 | 100 | 75 | 97 |  | 
KAFAKLAARLYRKALARQLGVAA [MMI-0400] | 87 | 73 | 59 | 18 | 85 | 54 | 46 | 36 | 86
FAKLAARLYRKALARQLGVAA [MMI-0300] | 84 | 82 | 55 | 35 | 86 | 74 | 68 | 46 | 83
